Measured values taken from article PMC8223476 (2021).

Target: Biotinylated SARS-CoV-2 (COVID-19) S protein RBD, His, Avitag (bRBD) (SARS-CoV-2, UniProt P0DTC2, biotinylated)
Assay: flow cytometry on cells

B1: C119 (IgG) (antibody, V domains shown)
VH: QVQLVQSGAEVKKPGASVKVSCKASGYTFTSYYMHWVRQAPGQGLEWMGIINPSGGSTSYAQKLQGRVTMTRDTSTSTVYMELSSLRSEDTAVYYCARANHETTMDTYYYYYYMDVWGKGTTVTVSS
VL: QSALTQPASVSGSPGQSITISCTGTSSDVGGYKYVSWYQRHPGKAPKLMIYDVSNRPSGVSNRFSGSKSGNTASLTISGLQAEDEADYYCSSYTSSSTSVVFGGGTQLTVL
  binding result: binds
